Results reported in patent publication US20220213209A1 (JOINT STOCK COMPANY BIOCAD, published 2022).
Positions count from the first letter of the chain named. Numbers in names are those of the source. Values belong to the binder of their own block, whether it stands above or below them.

Columns and labels:
murine GITR-Fc = target: T1, murine GITR-Fc (Mus musculus, UniProt O35714 20-153); assay: ELISA, plate coated with mouse GITR-Fc 0.5 µg/ml, antibody titrated 10 to 0.02 µg/ml
T1 construct: extracellular domain; also called mouse GITR; musGITR
T1 sequence (looked up): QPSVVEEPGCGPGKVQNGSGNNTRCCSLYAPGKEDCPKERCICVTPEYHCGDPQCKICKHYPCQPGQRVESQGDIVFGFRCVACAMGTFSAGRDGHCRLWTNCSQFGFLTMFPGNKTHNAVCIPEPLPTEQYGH
Experimental: ELISA was used to measure relative affinity of antibodies against GITR-Fc from different organisms. For binding assay, ELISA plate wells (medium binding from Greiner bio one) were coated with 50 μl of human/cynomolgus/murine GITR-Fc (0.5 μg/ml in 1× carbonate buffer), sealed and incubated overnight at 4° C. All further steps were performed in accordance with the standard ELISA protocol described in Example 6. […] Therefore, candidate BCD166-01-011 was excluded from further study due to the lack of apparent specificity for the monkey GITR. Candidates BCD166-01-01 and BCD166-01-014 were finalized for further development.

[1] = target: T2, recombinant human GITR antigen (extracellular domain) (human, UniProt Q9Y5U5 26-162); assay: BLI OctetRed 96, antigen on AR2G sensors, antibody in solution, 1:1 model
T2 construct: extracellular domain
T2 sequence (looked up): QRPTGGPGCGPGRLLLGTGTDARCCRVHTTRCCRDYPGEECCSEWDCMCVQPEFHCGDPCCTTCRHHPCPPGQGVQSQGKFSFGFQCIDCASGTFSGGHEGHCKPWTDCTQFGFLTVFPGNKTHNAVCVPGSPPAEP
Experimental: Binding affinity constants for anti-GITR antibody-human/rhesus macaque/cynomolgus monkey GITR interactions were determined using OctetRed 96 according to manufacturer (ForteBio) protocol. Antigen 25 μg/ml was non-specifically immobilized onto the surface of amine-reactive sensors of the second generation (AR2G) (ForteBio, using standard protocol according to manufacturer's instructions for preparation and immobilization of AR2G sensors). […] The assay was conducted at 30° C. using PBS comprising 0.1% Tween-20 and 0.1% BSA as a working buffer.
The resulting sensograms, after subtracting a reference signal, were analyzed using Octet Data Analysis software (Version 8.0) in accordance with the standard procedure and using 1:1 interaction model. All tested antibodies show high affinity and specificity for human GITR.

macaca mulatta GITR = target: T3, macaca mulatta GITR (Macaca mulatta, UniProt F7DDV8 20-156); assay: as above
T3 construct: also called rhesus macaque GITR; mcyGITR Macaca mulatta
T3 sequence: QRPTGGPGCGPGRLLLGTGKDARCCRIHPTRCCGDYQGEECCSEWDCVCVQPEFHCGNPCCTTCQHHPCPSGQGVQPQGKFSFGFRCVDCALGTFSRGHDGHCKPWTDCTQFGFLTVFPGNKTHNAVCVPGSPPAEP
Experimental: (§1) Binding affinity constants for anti-GITR antibodies and rhesus macaque/cynomolgus monkey GITR were obtained using OctetRed 96 according to manufacturer's (ForteBio) protocol. Antigen 25 μg/ml was non-specifically immobilized onto the surface of amine-reactive sensors of the second generation (AR2G) (ForteBio, using standard protocol according to manufacturer's instructions for preparation and immobilization of AR2G sensors). […] The assay was conducted at 30° C. using PBS comprising 0.1% Tween-20 and 0.1% BSA as a working buffer.
(§2) The resulting sensograms, after subtracting a reference signal, were analyzed using Octet Data Analysis software (Version 8.0) in accordance with the standard procedure and using 1:1 interaction model.

macaca Cynomolgus GITR = target: T4, macaca Cynomolgus GITR (Macaca cynomolgus); assay: as above
T4 construct: also called cynomolgus monkey GITR; monkey GITR
Experimental: as §1, §2

human FcgRIIa131H = target: T5, human FcgRIIa131H (human, UniProt P12318 36-218, biotinylated (site not stated)); assay: bio-layer interferometry (OctetRed 96), biotinylated receptor on streptavidin sensors, antibody in solution, pH 7.4 buffer, 30 °C
T5 construct: Biotinylated receptor on streptavidin sensors
T5 sequence (looked up): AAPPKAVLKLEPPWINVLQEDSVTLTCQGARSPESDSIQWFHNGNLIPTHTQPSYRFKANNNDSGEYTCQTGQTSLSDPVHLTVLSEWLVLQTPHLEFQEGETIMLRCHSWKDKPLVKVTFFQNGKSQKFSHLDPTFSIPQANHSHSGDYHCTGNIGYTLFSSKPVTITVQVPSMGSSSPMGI
Experimental: (§3) The binding affinity constants for antibody BCD166-02-01-human FcRn, FcgRIIIa158V, FcgRIIIa158F, FcgRIIa131H, FcgRIIa131R, FcgRIIb and FcgRIa interactions were determined using OctetRed 96 (ForteBio). Biotinylated receptors were immobilized on the surface of streptavidin sensors (SA). We conducted and analyzed the association and dissociation between receptors and antibody in a working buffer (PBS containing 0.1% Tween-20 and 0.1% BSA: for FcRn receptor we used pH6 buffer, for the other receptors we used pH 7.4 buffer) at 30° C. The resulting sensograms were analyzed in accordance with 1:1 or 2:1 models, the affinity constants were calculated using Octet Data Analysis Software 8.0 User Guide Copyright 2011©.

human FcgRIa = target: T6, human FcgRIa (human, UniProt P12314 16-288, limits assumed, biotinylated (site not stated)); assay: as above
T6 construct: Biotinylated receptor on streptavidin sensors
Experimental: as §3

human FcgRIIa131R = target: T7, human FcgRIIa131R (human, UniProt P12318 36-218, biotinylated (site not stated)); assay: as above
T7 construct: Biotinylated receptor on streptavidin sensors
T7 sequence (looked up): T5 sequence (looked up) with H132R
Experimental: as §3

human FcgRIIIa158F = target: T8, human FcgRIIIa158F (human, UniProt P08637 17-208, biotinylated (site not stated)); assay: as above
T8 construct: Biotinylated receptor on streptavidin sensors
Experimental: as §3

human FcgRIIIa158V = target: T9, human FcgRIIIa158V (human, UniProt P08637 17-208, biotinylated (site not stated)); assay: as above
T9 construct: Biotinylated receptor on streptavidin sensors
Experimental: as §3

human FcgRIIb = target: T10, human FcgRIIb (human, UniProt P31994 43-217, biotinylated (site not stated)); assay: as above
T10 construct: Biotinylated receptor on streptavidin sensors
T10 sequence (looked up): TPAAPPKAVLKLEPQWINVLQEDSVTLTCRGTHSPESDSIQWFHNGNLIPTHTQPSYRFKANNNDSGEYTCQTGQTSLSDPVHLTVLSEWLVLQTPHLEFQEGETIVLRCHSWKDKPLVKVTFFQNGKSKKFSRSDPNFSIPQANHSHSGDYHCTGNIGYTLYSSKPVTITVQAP
Experimental: as §3

human FcRn = target: T11, human FcRn (human, UniProt P55899 24-297; P61769 21-119, biotinylated (site not stated)); assay: bio-layer interferometry (OctetRed 96), biotinylated receptor on streptavidin sensors, antibody in solution, pH 6 buffer, 30 °C
T11 construct: Biotinylated receptor on streptavidin sensors
Experimental: as §3

[2] = target: T12, GITR stably expressed on the surface of HEK-293 cells (UniProt Q9Y5U5 26-241); assay: cell-based or functional assay
T12 sequence (looked up): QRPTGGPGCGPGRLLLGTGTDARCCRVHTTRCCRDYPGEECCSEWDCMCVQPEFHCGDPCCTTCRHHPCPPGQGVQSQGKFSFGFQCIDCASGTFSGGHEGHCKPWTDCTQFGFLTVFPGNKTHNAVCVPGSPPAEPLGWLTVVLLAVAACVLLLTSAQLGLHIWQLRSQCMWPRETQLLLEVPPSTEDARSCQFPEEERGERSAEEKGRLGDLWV

T8 sequence (P08637 17-208 limits assumed): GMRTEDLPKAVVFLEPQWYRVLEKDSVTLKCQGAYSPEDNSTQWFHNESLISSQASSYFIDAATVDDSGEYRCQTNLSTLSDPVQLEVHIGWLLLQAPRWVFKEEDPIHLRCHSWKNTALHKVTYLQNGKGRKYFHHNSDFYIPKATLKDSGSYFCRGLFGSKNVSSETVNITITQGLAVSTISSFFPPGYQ
T6 sequence (P12314 16-288 limits assumed): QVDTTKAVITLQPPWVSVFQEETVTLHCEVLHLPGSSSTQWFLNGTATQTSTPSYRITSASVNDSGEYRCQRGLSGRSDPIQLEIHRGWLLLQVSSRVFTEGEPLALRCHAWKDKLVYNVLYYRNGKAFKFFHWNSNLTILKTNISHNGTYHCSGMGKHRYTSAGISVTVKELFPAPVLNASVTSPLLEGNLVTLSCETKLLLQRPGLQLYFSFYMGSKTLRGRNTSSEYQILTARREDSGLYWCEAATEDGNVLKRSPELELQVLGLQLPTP
T9 sequence (P08637 17-208 F176V limits assumed): as the sequence (P08637 17-208 limits assumed) above, with F160V counted along it

- binding result (murine GITR-Fc): no binding (tested: 10 µg/ml)
- Kd [1]: 8.5 nM
- Kd (macaca mulatta GITR): 0.192 nM
- Kd (macaca Cynomolgus GITR): 55.3 nM
B1: BCD166-01-014 (antibody, human IgG1, lambda, V domains shown)
VH: QVQLVQSGGGLVQPGGSLRLSCAASGFTFSYYWMYWVRQAPGKGLEWVSAISWNGGRTYYAESMKGRFTISRDNAQNTLYLQMNSLKSEDTAVYYCAKNRYYSDPNYGMNLWGKGTTVTVSS
VL: QSALTQPASVSGSPGQSITISCTGTSTDIGTYKYISWYQQHPGKAPKLIIYGVSHRPSGVSDRFSGSKSDNTASLTISGLQAEDEADYYCSSYTSSGTVVFGGGTKVTVLG
notes: Full-length IgG1, lambda light chain; from an immune llama-human CHARM Fab library; also called BCD166-01-14

- Kd (human FcgRIIa131H): 72.2 nM
- Kd (human FcgRIa): 0.723 nM
- Kd (human FcgRIIa131R): 40.2 nM
- Kd (human FcgRIIIa158F): 1420 nM
- Kd (human FcgRIIIa158V): 118 nM
- Kd (human FcgRIIb): 557 nM
- Kd (human FcRn): 27 nM
- EC50 in ADCC reporter assay (Jurkat-NFAT-Luc-CD16 effector cells, Hek-293-GITR target cells) [2]: 40 fold, against BCD166-01-01
- EC50 in cell agonist assay (HEK293-GITR-NFkB-Luc) [2]: 20 fold, against BCD166-01-01
- level of activation in cell agonist assay (HEK293-GITR-NFkB-Luc) [2]: 5 fold, against BCD166-01-01
B2: BCD166-02-01 (antibody, human IgG1, kappa)
heavy: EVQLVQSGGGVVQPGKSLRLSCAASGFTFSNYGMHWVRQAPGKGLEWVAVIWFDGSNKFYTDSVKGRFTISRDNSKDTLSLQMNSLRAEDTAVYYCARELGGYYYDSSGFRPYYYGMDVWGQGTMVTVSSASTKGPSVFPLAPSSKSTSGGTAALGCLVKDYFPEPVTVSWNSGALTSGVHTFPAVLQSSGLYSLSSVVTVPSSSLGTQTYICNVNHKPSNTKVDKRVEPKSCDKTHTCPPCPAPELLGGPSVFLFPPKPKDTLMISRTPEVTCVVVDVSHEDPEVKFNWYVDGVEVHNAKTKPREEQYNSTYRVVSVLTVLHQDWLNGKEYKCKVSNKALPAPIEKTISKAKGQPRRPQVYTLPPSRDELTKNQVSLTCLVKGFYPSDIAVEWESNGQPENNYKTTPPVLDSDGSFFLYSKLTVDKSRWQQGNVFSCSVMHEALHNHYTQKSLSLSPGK
light: DVVMTQSPSSVSASVGDRVTITCRASQSIGSWLAWYQQKPGEAPKLLIYAASTLQRGVPSRFSGGGYGTEFTLTISSLQPEDFATYFCQQSHSHPLTFGGGTKVEIKRTVAAPSVFIFPPSDEQLKSGTASVVCLLNNFYPREAKVQWKVDNALQSGNSQESVTEQDSKDSTYSLSSTLTLSKADYEKHKVYACEVTHQGLSSPVTKSFNRGEC
notes: BCD166-01-01 with the E345R mutation (EU numbering) in the IgG1 Fc; also called BCD166-02-001

- binding result (murine GITR-Fc): no binding (tested: 10 µg/ml)
- Kd [1]: 0.0638 nM
- Kd (macaca mulatta GITR): 0.0924 nM
- Kd (macaca Cynomolgus GITR): 0.542 nM
B3: BCD166-01-01 (antibody, human IgG1, kappa)
heavy: not shown
light: B2 light
notes: Full-length human IgG1, kappa; also called BCD166-01-001; BCD166-NHVKITSe13-5-H3-25
